Experimental findings from PMC11969024 (2025) are described below.

The labels stand for the following.
B1: peptide HD2 (from tick evasin EVA4) / CCL8 (biotinylated, synthetic) (parent complex)
chain 1: EEDDYTAYAPLTCYFT
chain 2: QPDSVSIPITCCFNVINRKIPIQRLESYTRITNIQCPKEAVIFKTKRGKEVCADPKERWVRDSMKHLDQIFQNLKP

The assay covers variants of B1.
Turning to chain 1 E2M, the enrichment was -2.24 log2 (difference from the parental peptide).

With chain 1 E2H, the enrichment is -2.03 log2 (difference from the parental peptide).

As for chain 1 E2P, the enrichment is -2.32 log2 (difference from the parental peptide).

Regarding chain 1 E2D, the enrichment was 1.04 log2 (difference from the parental peptide).

For the variant chain 1 E2L, the enrichment was -1.7 log2 (difference from the parental peptide).

For the variant chain 1 E2A, the enrichment was -1.44 log2 (difference from the parental peptide).

chain 1 E2S: the enrichment was -1.97 log2 (difference from the parental peptide).

On to chain 1 E2V, for which the enrichment was -1.43 log2 (difference from the parental peptide).

On to chain 1 D3L, for which the enrichment was -2.94 log2 (difference from the parental peptide).

Regarding chain 1 D3K, the enrichment was -4.88 log2 (difference from the parental peptide).

For chain 1 D3R, the enrichment was -4.97 log2 (difference from the parental peptide).

For the variant chain 1 D3Q, the enrichment was -2.92 log2 (difference from the parental peptide).

Consider chain 1 D3F, for which the enrichment is -2.94 log2 (difference from the parental peptide).

As for chain 1 D3I, the enrichment was -3.47 log2 (difference from the parental peptide).

Consider chain 1 D3W, for which the enrichment is -2.86 log2 (difference from the parental peptide).

On to chain 1 D3G, for which the enrichment was -2.58 log2 (difference from the parental peptide).

Regarding chain 1 D3C, the enrichment is -7.83 log2 (difference from the parental peptide).

In the case of chain 1 D3V, the enrichment is -3.08 log2 (difference from the parental peptide).

Take chain 1 D3A: the enrichment is -1.64 log2 (difference from the parental peptide).

As to chain 1 D3M, the enrichment is -3.45 log2 (difference from the parental peptide).

Consider chain 1 D3P, for which the enrichment is -2.64 log2 (difference from the parental peptide).

Take chain 1 D3N: the enrichment is -1.8 log2 (difference from the parental peptide).

chain 1 D3Y: the enrichment was -2.62 log2 (difference from the parental peptide).

On to chain 1 D3H, for which the enrichment is -2.58 log2 (difference from the parental peptide).

chain 1 T12A: the enrichment was -0.122 log2 (difference from the parental peptide).

In the case of chain 1 T12M, the enrichment was -0.433 log2 (difference from the parental peptide).

Take chain 1 T12Q: the enrichment was 0.904 log2 (difference from the parental peptide).

With chain 1 T12I, the enrichment is -0.26 log2 (difference from the parental peptide).

chain 1 T12D: the enrichment was -1.11 log2 (difference from the parental peptide).

As to chain 1 T12P, the enrichment is -0.165 log2 (difference from the parental peptide).

As to chain 1 T12G, the enrichment was -3.67 log2 (difference from the parental peptide).

As to chain 1 T12L, the enrichment was 0.285 log2 (difference from the parental peptide).

For chain 1 T12F, the enrichment was -1.18 log2 (difference from the parental peptide).

For the variant chain 1 F15P, the enrichment was 2.45 log2 (difference from the parental peptide).

Turning to chain 1 F15N, the enrichment was 1.4 log2 (difference from the parental peptide).

Consider chain 1 F15V, for which the enrichment was 2.21 log2 (difference from the parental peptide).

On to chain 1 F15S, for which the enrichment is 1.91 log2 (difference from the parental peptide).

Regarding chain 1 F15C, the enrichment is 0.0192 log2 (difference from the parental peptide).

As for chain 1 F15H, the enrichment was 2.19 log2 (difference from the parental peptide).

For the variant chain 1 F15W, the enrichment was 0.273 log2 (difference from the parental peptide).

For chain 1 F15Y, the enrichment is 1.8 log2 (difference from the parental peptide).

chain 1 C13S: the enrichment was -1.77 log2 (difference from the parental peptide).

In the case of chain 1 C13D, the enrichment was -4.59 log2 (difference from the parental peptide).

For the variant chain 1 C13V, the enrichment was 0.0797 log2 (difference from the parental peptide).

With chain 1 C13M, the enrichment is -0.513 log2 (difference from the parental peptide).

Regarding chain 1 C13Q, the enrichment was -1.97 log2 (difference from the parental peptide).

Turning to chain 1 C13N, the enrichment is -3.72 log2 (difference from the parental peptide).

As to chain 1 C13W, the enrichment is -1.28 log2 (difference from the parental peptide).

Turning to chain 1 C13T, the enrichment is -0.813 log2 (difference from the parental peptide).

Regarding chain 1 C13K, the enrichment was -4.94 log2 (difference from the parental peptide).

Turning to chain 1 C13H, the enrichment is -2.17 log2 (difference from the parental peptide).

For chain 1 C13R, the enrichment is -3.1 log2 (difference from the parental peptide).

With chain 1 P10Q, the enrichment is -5.91 log2 (difference from the parental peptide).

Regarding chain 1 P10G, the enrichment is -9.74 log2 (difference from the parental peptide).

For the variant chain 1 P10L, the enrichment was -8.02 log2 (difference from the parental peptide).

On to chain 1 P10R, for which the enrichment is -7.6 log2 (difference from the parental peptide).

With chain 1 P10C, the enrichment was -8.24 log2 (difference from the parental peptide).

For chain 1 P10Y, the enrichment is -6.5 log2 (difference from the parental peptide).

chain 1 P10D: the enrichment is -7.93 log2 (difference from the parental peptide).

With chain 1 P10A, the enrichment was -8.23 log2 (difference from the parental peptide).

In the case of chain 1 A7I, the enrichment is 0.0548 log2 (difference from the parental peptide).

Turning to chain 1 A7V, the enrichment was -0.376 log2 (difference from the parental peptide).

Take chain 1 A7K: the enrichment is 0.582 log2 (difference from the parental peptide).

With chain 1 A7S, the enrichment was 0.947 log2 (difference from the parental peptide).

Take chain 1 A7M: the enrichment was 1.51 log2 (difference from the parental peptide).

As to chain 1 A7C, the enrichment is -9.36 log2 (difference from the parental peptide).

As to chain 1 A7E, the enrichment is 2.43 log2 (difference from the parental peptide).

As to chain 1 A7P, the enrichment was 0.181 log2 (difference from the parental peptide).

On to chain 1 A7D, for which the enrichment is 2.55 log2 (difference from the parental peptide).

Take chain 1 L11E: the enrichment is 0.712 log2 (difference from the parental peptide).

With chain 1 L11N, the enrichment was 0.274 log2 (difference from the parental peptide).

Take chain 1 L11G: the enrichment was -1.12 log2 (difference from the parental peptide).

Turning to chain 1 L11M, the enrichment was 2.26 log2 (difference from the parental peptide).

Consider chain 1 L11W, for which the enrichment is -0.601 log2 (difference from the parental peptide).

chain 1 L11F: the enrichment was -0.0302 log2 (difference from the parental peptide).

Turning to chain 1 L11H, the enrichment is 1.86 log2 (difference from the parental peptide).

For chain 1 L11S, the enrichment is 1.65 log2 (difference from the parental peptide).

For the variant chain 1 T6C, the enrichment was -9.06 log2 (difference from the parental peptide).

In the case of chain 1 T6V, the enrichment is -3.12 log2 (difference from the parental peptide).

Regarding chain 1 T6P, the enrichment was -1.36 log2 (difference from the parental peptide).

Consider chain 1 T6M, for which the enrichment is -0.0579 log2 (difference from the parental peptide).

Regarding chain 1 T6Q, the enrichment was 1.13 log2 (difference from the parental peptide).

As for chain 1 T6N, the enrichment was 0.795 log2 (difference from the parental peptide).

As to chain 1 T6A, the enrichment is 1.59 log2 (difference from the parental peptide).

On to chain 1 T6S, for which the enrichment is 2.06 log2 (difference from the parental peptide).

For chain 1 T16K, the enrichment was 1.41 log2 (difference from the parental peptide).

Consider chain 1 T16M, for which the enrichment was 0.502 log2 (difference from the parental peptide).

On to chain 1 T16N, for which the enrichment was 0.543 log2 (difference from the parental peptide).

Regarding chain 1 T16C, the enrichment is -2.39 log2 (difference from the parental peptide).

On to chain 1 T16W, for which the enrichment is -0.46 log2 (difference from the parental peptide).

For the variant chain 1 T16Y, the enrichment is -0.142 log2 (difference from the parental peptide).

chain 1 T16V: the enrichment was 0.537 log2 (difference from the parental peptide).

For chain 1 T16G, the enrichment was 1.07 log2 (difference from the parental peptide).

With chain 1 T16E, the enrichment is 1.25 log2 (difference from the parental peptide).

On to chain 1 E1D, for which the enrichment was 1.88 log2 (difference from the parental peptide).

With chain 1 E1Q, the enrichment is -0.418 log2 (difference from the parental peptide).

Regarding chain 1 E1L, the enrichment is -1.2 log2 (difference from the parental peptide).

As for chain 1 E1C, the enrichment was -8.27 log2 (difference from the parental peptide).

Regarding chain 1 E1A, the enrichment was -0.674 log2 (difference from the parental peptide).

As for chain 1 E1G, the enrichment is -0.383 log2 (difference from the parental peptide).

In the case of chain 1 E1V, the enrichment is -0.973 log2 (difference from the parental peptide).

Consider chain 1 E1P, for which the enrichment is -0.418 log2 (difference from the parental peptide).

With chain 1 E1Y, the enrichment is -0.879 log2 (difference from the parental peptide).

Regarding chain 1 Y5H, the enrichment was -5.84 log2 (difference from the parental peptide).

On to chain 1 Y5C, for which the enrichment was -7.1 log2 (difference from the parental peptide).

Regarding chain 1 Y5A, the enrichment was -6.59 log2 (difference from the parental peptide).

As for chain 1 Y5M, the enrichment was -0.636 log2 (difference from the parental peptide).

As for chain 1 Y5L, the enrichment is -0.265 log2 (difference from the parental peptide).

Regarding chain 1 Y5G, the enrichment was -5.04 log2 (difference from the parental peptide).

For chain 1 Y5S, the enrichment is -5.16 log2 (difference from the parental peptide).

In the case of chain 1 D4R, the enrichment is -6.61 log2 (difference from the parental peptide).

chain 1 D4K: the enrichment was -6.39 log2 (difference from the parental peptide).

As to chain 1 D4S, the enrichment was -2.5 log2 (difference from the parental peptide).

With chain 1 D4G, the enrichment was -2.42 log2 (difference from the parental peptide).

Turning to chain 1 D4E, the enrichment was -0.292 log2 (difference from the parental peptide).

On to chain 1 D4F, for which the enrichment was -4.31 log2 (difference from the parental peptide).

Take chain 1 D4L: the enrichment was -3.87 log2 (difference from the parental peptide).

As to chain 1 D4A, the enrichment is -3.07 log2 (difference from the parental peptide).

Regarding chain 1 D4H, the enrichment was -4.48 log2 (difference from the parental peptide).

Turning to chain 1 D4N, the enrichment was -2.35 log2 (difference from the parental peptide).

Consider chain 1 D4T, for which the enrichment is -2.87 log2 (difference from the parental peptide).

Take chain 1 D4V: the enrichment was -3.88 log2 (difference from the parental peptide).

Consider chain 1 D4C, for which the enrichment is -7.17 log2 (difference from the parental peptide).

Turning to chain 1 D4P, the enrichment was -4.27 log2 (difference from the parental peptide).

In the case of chain 1 Y8H, the enrichment was -4.28 log2 (difference from the parental peptide).

On to chain 1 Y8A, for which the enrichment was -1.36 log2 (difference from the parental peptide).

Turning to chain 1 Y8F, the enrichment is 1.24 log2 (difference from the parental peptide).

In the case of chain 1 Y8W, the enrichment was 0.61 log2 (difference from the parental peptide).

Consider chain 1 Y8N, for which the enrichment is -4.48 log2 (difference from the parental peptide).

As for chain 1 Y8S, the enrichment is -4.18 log2 (difference from the parental peptide).

Regarding chain 1 Y14G, the enrichment was -2.18 log2 (difference from the parental peptide).

Take chain 1 Y14S: the enrichment is -0.238 log2 (difference from the parental peptide).

Turning to chain 1 Y14T, the enrichment was 1.09 log2 (difference from the parental peptide).

As for chain 1 Y14K, the enrichment is -1.21 log2 (difference from the parental peptide).

In the case of chain 1 Y14E, the enrichment was -0.645 log2 (difference from the parental peptide).

For the variant chain 1 Y14Q, the enrichment is 0.652 log2 (difference from the parental peptide).

In the case of chain 1 Y14H, the enrichment is 1.41 log2 (difference from the parental peptide).

For the variant chain 1 Y14R, the enrichment was -0.632 log2 (difference from the parental peptide).

Turning to chain 1 Y14V, the enrichment is 1.05 log2 (difference from the parental peptide).

For chain 1 Y14F, the enrichment was 0.904 log2 (difference from the parental peptide).

With chain 1 Y14D, the enrichment was -0.707 log2 (difference from the parental peptide).

For chain 1 A9E, the enrichment is 1.36 log2 (difference from the parental peptide).

Consider chain 1 A9H, for which the enrichment is -2.52 log2 (difference from the parental peptide).

In the case of chain 1 A9D, the enrichment is -7.75 log2 (difference from the parental peptide).

Take chain 1 A9W: the enrichment was -5.37 log2 (difference from the parental peptide).

As to chain 1 A9F, the enrichment is -4.42 log2 (difference from the parental peptide).

chain 1 A9L: the enrichment is -3.92 log2 (difference from the parental peptide).

As for chain 1 A9I, the enrichment was -5.81 log2 (difference from the parental peptide).

For the variant chain 1 A9R, the enrichment is -0.86 log2 (difference from the parental peptide).

With chain 1 A9N, the enrichment is -3.86 log2 (difference from the parental peptide).
